Source: patent publication EP2544694B1 (Novelmed Therapeutics, Inc., dated 2018)

Target: human properdin (human, UniProt P27918 28-469)
Assay: cell-based or functional assay

Chain of human properdin (P27918 28-469 limits assumed): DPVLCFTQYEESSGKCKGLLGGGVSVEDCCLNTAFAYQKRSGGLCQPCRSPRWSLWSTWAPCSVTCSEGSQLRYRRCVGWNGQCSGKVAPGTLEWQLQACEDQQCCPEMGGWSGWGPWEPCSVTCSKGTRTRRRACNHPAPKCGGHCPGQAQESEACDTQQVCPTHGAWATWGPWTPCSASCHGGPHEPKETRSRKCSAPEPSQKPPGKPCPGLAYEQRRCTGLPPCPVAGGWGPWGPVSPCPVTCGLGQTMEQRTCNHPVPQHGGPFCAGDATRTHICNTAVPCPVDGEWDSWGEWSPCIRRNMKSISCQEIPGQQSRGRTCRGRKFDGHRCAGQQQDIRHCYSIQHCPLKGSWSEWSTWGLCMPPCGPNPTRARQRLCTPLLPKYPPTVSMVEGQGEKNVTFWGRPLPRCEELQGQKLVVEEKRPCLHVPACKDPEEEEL

B1: anti-properdin monoclonal antibody IgG (14G11) (antibody, V domains shown)
VH: QVTLKESGPGILQPSQTLSLTCSFSGFSLSTSGMGVGWIRQPSGKGLEWLAHIWWDDVKSYNPALKSRLTISKDTSSSQVFLRIASVDTADTATYYCARIGDGYYSFDYWGQGTTLTVSS
VL: DIVMTQSHKFMSTSVGDRVSISCKASQDVSDAVAWFQQKPGQSPKLLIYSPSYRYTGVPDRFTGSGSGTDFTFTISSVQAEDLAVYYCQQHYSTPWTFGGGTKLEIKR
IC50 of inhibition of AP dependent hemolysis of rRBC in 10% normal human serum: 10 nM
